T1: eIF2Bγ, FLAG-tagged (γ-subunit of yeast eIF2B) (S. cerevisiae, UniProt P09032 1-578)
T1 construct: eIF2B gamma subunit (GCD1), S. cerevisiae; Bait of all eIF2B complex purifications; also called GCD1-FLAG2-His6; source: S. cerevisiae strains overexpressing eIF2B subunits, purified (anti-FLAG resin, FLAG peptide elution); not shown: FLAG2, C-terminal, kept
T1 sequence (looked up): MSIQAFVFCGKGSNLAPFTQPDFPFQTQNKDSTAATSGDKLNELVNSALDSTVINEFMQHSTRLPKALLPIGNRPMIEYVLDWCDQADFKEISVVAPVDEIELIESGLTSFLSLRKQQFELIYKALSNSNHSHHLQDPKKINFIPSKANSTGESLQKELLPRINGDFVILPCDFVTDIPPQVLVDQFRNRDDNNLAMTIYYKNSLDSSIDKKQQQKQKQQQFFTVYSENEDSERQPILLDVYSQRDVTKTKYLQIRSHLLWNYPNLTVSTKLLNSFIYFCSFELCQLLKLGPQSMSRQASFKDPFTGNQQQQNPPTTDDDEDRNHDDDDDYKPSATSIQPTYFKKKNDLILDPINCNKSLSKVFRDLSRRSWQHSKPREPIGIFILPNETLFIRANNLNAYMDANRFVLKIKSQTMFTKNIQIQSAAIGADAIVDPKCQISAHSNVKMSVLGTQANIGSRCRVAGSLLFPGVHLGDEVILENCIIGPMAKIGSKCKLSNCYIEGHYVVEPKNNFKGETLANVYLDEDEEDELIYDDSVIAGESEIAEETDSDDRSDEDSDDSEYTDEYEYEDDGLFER

B1: eIF2Bβ (β-subunit of yeast eIF2B) (natural protein, S. cerevisiae, UniProt P32502 1-381, looked up)
chain: MSSQAFTSVHPNAATSDVNVTIDTFVAKLKRRQVQGSYAIALETLQLLMRFISAARWNHVNDLIEQIRDLGNSLEKAHPTAFSCGNVIRRILAVLRDEVEEDTMSTTVTSTSVAEPLISSMFNLLQKPEQPHQNRKNSSGSSSMKTKTDYRQVAIQGIKDLIDEIKNIDEGIQQIAIDLIHDHEILLTPTPDSKTVLKFLITARERSNRTFTVLVTEGFPNNTKNAHEFAKKLAQHNIETLVVPDSAVFALMSRVGKVIIGTKAVFVNGGTISSNSGVSSVCECAREFRTPVFAVAGLYKLSPLYPFDVEKFVEFGGSQRILPRMDPRKRLDTVNQITDYVPPENIDIYITNVGGFNPSFIYRIAWDNYKQIDVHLDKNKA
notes: eIF2B beta subunit (GCD7), S. cerevisiae; Subunit of the purified eIF2B complexes, written alone for the subunit pairs; also called eIF2B β-subunit; β/Gcd7
B2: eIF2Bδ (δ-subunit of yeast eIF2B) (natural protein, S. cerevisiae, UniProt P12754 1-651, looked up)
chain: MSESEAKSRSATPPSKAKQATPTTTAAANGEKKLTNKELKELKKQEKAAKRAAMKQANGISIEQQQQQAQMKKEKKQLQREQQQKREQKQKNANKKKQNERNVKKSTLFGHLETTEERRATILALTSAVSSPKTSRITAAGLMVPVVASALSGSNVLTASSLMPVGPNASSTVSASAPASTTTTLPASSAALSAGTSSASTNTPTAIQQEIASSNASDVAKTLASISLEAGEFNVIPGISSVIPTVLEQSFDNSSLISSVKELLLNKDLIHPSILLLTSHLAHYKIVGSIPRCIAMLEVFQIVIKDYQTPKGTTLSRNLTSYLSHQIDLLKKARPLSVTMGNAIRWLKQEISLIDPSTPDKAAKKDLCEKIGQFAKEKIELADQLIIDNASTQIEESTTIVTYGSSKVLTELLLHNAISLKKNIKVIVVDSRPLFEGRKMAETLRNAGVNVMYALITSLDTIFNMDVDYVFLGAHSILSNGFLYSRAGTAMLAMSAKRRNIPVLVCCESLKFSQRVQLDSVTFNELADPNDLVNIDYENPVERRGNKGALLNQFIKERKFEKKKLAMENKPKGNKIGGKKGSEGESKDASNEEDSNSKNILDGWQELPSLNIVNILYDLTPPEYIKKVITEFGALPPSSVPVILREYKGSA
notes: eIF2B delta subunit (GCD2), S. cerevisiae; Subunit of the purified eIF2B complexes, written alone for the subunit pairs; also called eIF2B δ-subunit; δ/Gcd2
B3: eIF2Bα (α-subunit of yeast eIF2B) (natural protein, S. cerevisiae, UniProt P14741 1-305, looked up)
chain: MSEFNITETYLRFLEEDTEMTMPIAAIEALVTLLRIKTPETAAEMINTIKSSTEELIKSIPNSVSLRAGCDIFMRFVLRNLHLYGDWENCKQHLIENGQLFVSRAKKSRNKIAEIGVDFIADDDIILVHGYSRAVFSLLNHAANKFIRFRCVVTESRPSKQGNQLYTLLEQKGIPVTLIVDSAVGAVIDKVDKVFVGAEGVAESGGIINLVGTYSVGVLAHNARKPFYVVTESHKFVRMFPLSSDDLPMAGPPLDFTRRTDDLEDALRGPTIDYTAQEYITALITDLGVLTPSAVSEELIKMWYD
notes: eIF2B alpha subunit (GCN3), S. cerevisiae; Subunit of the purified eIF2B complex, written alone for the subunit pairs; also called eIF2B α-subunit; GCN3
B4: eIF2Bε (ε-subunit of yeast eIF2B, untagged) (natural protein, S. cerevisiae, UniProt P32501 1-712, looked up)
chain: MAGKKGQKKSGLGNHGKNSDMDVEDRLQAVVLTDSYETRFMPLTAVKPRCLLPLANVPLIEYTLEFLAKAGVHEVFLICSSHANQINDYIENSKWNLPWSPFKITTIMSPEARCTGDVMRDLDNRGIITGDFILVSGDVLTNIDFSKMLEFHKKMHLQDKDHISTMCLSKASTYPKTRTIEPAAFVLDKSTSRCIYYQDLPLPSSREKTSIQIDPELLDNVDEFVIRNDLIDCRIDICTSHVPLIFQENFDYQSLRTDFVKGVISSDILGKHIYAYLTDEYAVRVESWQTYDTISQDFLGRWCYPLVLDSNIQDDQTYSYESRHIYKEKDVVLAQSCKIGKCTAIGSGTKIGEGTKIENSVIGRNCQIGENIRIKNSFIWDDCIIGNNSIIDHSLIASNATLGSNVRLNDGCIIGFNVKIDDNMDLDRNTKISASPLKNAGSRMYDNESNEQFDQDLDDQTLAVSIVGDKGVGYIYESEVSDDEDSSTEACKEINTLSNQLDELYLSDDSISSATKKTKKRRTMSVNSIYTDREEIDSEFEDEDFEKEGIATVERAMENNHDLDTALLELNTLRMSMNVTYHEVRIATITALLRRVYHFIATQTLGPKDAVVKVFNQWGLLFKRQAFDEEEYIDLMNIIMEKIVEQSFDKPDLILFSALVSLYDNDIIEEDVIYKWWDNVSTDPRYDEVKKLTVKWVEWLQNADEESSSEEE
notes: eIF2B epsilon subunit (GCD6), S. cerevisiae; Subunit of the purified eIF2B complexes, written alone for the subunit pairs; also called eIF2B ε-subunit; ε/GCD6
B5: eIF2γ, His-tagged (γ-subunit of yeast eIF2) (natural protein, S. cerevisiae, UniProt P32481 1-527, looked up)
chain: MSDLQDQEPSIIINGNLEPVGEPDIVEETEVVAQETQETQDADKPKKKVAFTGLEEDGETEEEKRKREFEEGGGLPEQPLNPDFSKLNPLSAEIINRQATINIGTIGHVAHGKSTVVRAISGVQTVRFKDELERNITIKLGYANAKIYKCQEPTCPEPDCYRSFKSDKEISPKCQRPGCPGRYKLVRHVSFVDCPGHDILMSTMLSGAAVMDAALLLIAGNESCPQPQTSEHLAAIEIMKLKHVIILQNKVDLMREESALEHQKSILKFIRGTIADGAPIVPISAQLKYNIDAVNEFIVKTIPVPPRDFMISPRLIVIRSFDVNKPGAEIEDLKGGVAGGSILNGVFKLGDEIEIRPGIVTKDDKGKIQCKPIFSNIVSLFAEQNDLKFAVPGGLIGVGTKVDPTLCRADRLVGQVVGAKGHLPNIYTDIEINYFLLRRLLGVKTDGQKQAKVRKLEPNEVLMVNIGSTATGARVVAVKADMARLQLTSPACTEINEKIALSRRIEKHWRLIGWATIKKGTTLEPIA
notes: eIF2 gamma subunit (GCD11), S. cerevisiae; also called GCD11-His6; source: S. cerevisiae strain GP3511 co-overexpressing all three eIF2 subunits, purified (Ni-chelate, heparin-Sepharose); not shown: His6, C-terminal, kept

Test [1] concerns the target yeast FLAG-tagged eIF2B complex (five subunits α–ε; decamer) (S. cerevisiae) (UniProt P14741). In words: native MS; FLAG-purified five-subunit eIF2B in 500 mM ammonium acetate; high collision energy for dissociation; decamer = two copies of each of five subunits.
Test [2] has the same target. Kind of test: native MS; eIF2-eIF2B preparations (purified at low ionic strength, or formed with phosphorylated eIF2 on anti-FLAG resin) exchanged into 500 mM ammonium acetate.
The target in test [3] is T1, eIF2Bγ, FLAG-tagged (γ-subunit of yeast …). In words: label-free quantitative proteomics (iBAQ) of the purified complex; eIF2-eIF2B complex purified after phosphorylation of eIF2, trypsin digest, nanoLC-MS/MS, iBAQ intensities compared; eIF2B subunits relative to FLAG-tagged γ (set to 1), eIF2 subunits relative to α. Particulars: both partners purified.
The target of test [4] is B2. In words: cross-linking; BS3-d0/d4 (1:1) added to purified complexes (eIF2:eIF2B, four-subunit eIF2B, eIF2Bγε core), 30 min at 26 °C, trypsin digest, nanoLC-MS/MS, MassMatrix search; the text does not tell which cross-link came from which complex. The note with it: both partners purified.
In test [5] the target is B4. Described as above. The note with it: both partners purified.
Test [6] concerns the target T1, eIF2Bγ, FLAG-tagged (γ-subunit of yeast …). Described as above. Particulars: both partners purified.
Test [7] addresses eIF2α phosphorylated at Ser51 (subunit of phosphorylated eIF2) (S. cerevisiae) (UniProt P20459). Kind of test: label-free quantitative proteomics (iBAQ) of the purified complex; eIF2-eIF2B complex purified after phosphorylation of eIF2, trypsin digest, nanoLC-MS/MS, iBAQ intensities compared; eIF2B subunits relative to FLAG-tagged γ (set to 1), eIF2 subunits relative to α.

The stoichiometry N is a count of units in the complex or per binding partner. As to “yeast FLAG-tagged eIF2B complex (five subunits α–ε; decamer), P14741 1-305; P32502 1-381; P09032 1-578; P12754 1-651; P32501 1-712”, the stoichiometry N in test [1] and in test [2] was 10 each time.
With B1, in test [3], the “stoichiometry N” value came to 1.4. Further, the binding result in test [4] and in test [5] was “binds” each time.
Take B2: the “stoichiometry N” value in test [3] was found to be 0.95. Moreover, the binding result in test [5] was “binds”.
Take B3: in test [3], the “stoichiometry N” value was found to be 1.12.
Take B4: in test [3], the “stoichiometry N” value is 0.76.
With B5, the binding result in test [4] and in test [6] was “binds” in each case. For the same molecule, the stoichiometry N in test [7] is 1.67.

These data come from publication PMC4046112, “eIF2B is a decameric guanine nucleotide exchange factor with a γ2ε2 tetrameric core” (Nature Communications, 2014).
